Data reported in a protein production outcome set (Wang et al. 2014).

Assay: label from the status in PepcDB records

Sequence | protein production
MNITKAFCLSIALLGASNMQAITNSDFVIQQDNTKINNYQTNRPETSKRLFVSQAVEQQIAHIKQLLTNARLAWMFENCFPNTLDTTVHFDGKDDTFVYTGDIHAMWLRDSGAQVWPYVQLANKDAELKKMLAGVIKRQFKCINIDPYANAFNMNSEGGEWMSDLTDMKPELHERKWEIDSLCYPIRLAYHYWKTTGDASIFSDEWLTAIAKVLKTFKEQQRKEDPKGPYRFQRKTERALDTMTNDGWGNPVKPVGLIASAFRPSDDATTFQFLVPSNFFAVTSLRKAAEILNTVNKKPDLAKECTTLSNEVETALKKYAVYNHPKYGKIYAFEVDGFGNQLLMDDANVPSLIALPYLGDVKVNDPIYQNTRKFVWSEDNPYFFKGTAGEGIGGPHIGYDMIWPMSIMMKAFTSQNDAEIKTCIKMLMDTDAGTGFMHESFHKNDPKNFTRSWFAWQNTLFGELILKLVNEGKVDLLNSIQLEHHHHHH | failed
AGGEDRGDGEPVSVVTVRVQYLEDTDPFACANFPEPRRAPTCSLDGALPLGAQIPAVHRLLGAPLKLEDCALQVSPSGYYLDTELSLEEQREMLEGFYEEISKGRKPTLILRTQLSVRVNAILEKLYSSSGPELRRSLFSLKQIFQEDKDLVPEFVHSEGLSCLIRVGAAADHNYQSYILRALGQLMLFVDGMLGVVAHSDTIQWLYTLCASLSR | failed
MDRNYSNWQSLTSLALFLLPFLFIGWLFDLFWPVTALALLGLVCWHYYYQQKLIKWLWQSRTLMPPSAPGSWSYIYDGIYRSQRRSQKRRKALARLLRRFREAAEALPDAAIVFRADGALLWSNKLAQFYFGLRWPDDAGQRLSNLIRHPEFYAYLNAGNFDEELTIPSPIRESLDIEIRIMPYSEDQFLLVARDVTQVKRLENLRREFVANVSHELKTPLTVLQGYLEMMDEPQQTPPAMLKKAVENMNAQSTRMANLVDQLLTLSRMETPSNDVFDHEVDMPALLEQLESEAKRLNEVKQHKIEFDVAPVRIYGKENLLRSAMQNLITNAINYTPDGGEIKVTWKTVAGGVEFSVKDNGKGIAAEHLPRLTERFYRVEDDRNSASGGTGLGLSIVKHAIEHHNSQLDINSSLEKGSRFSFRIPSGLLVS | failed
MHRKPICAALAIISAATLTTSLAYGMTAVELPAGAPADKPVGKLEQVQAFYDAMPTGVTVTETGRIFVNFPRWGDKVPFTVGEVRDGKVVAYPDLAVNHENPKDPGDGLISVQSVVADGKGRVWLLDTAAPEFAAPRPQGAKLVAVDLATNKIVKRLVFPDNVILPSTYVNDMRFDFRQGSQGTVYVTDSSVSGPGAIIVMDIASGHAVRRLSGAKATSADPAFVPVVEGVPVLGDGPDGTRKPVHVAADGIALSADGKTLYFSPLSSRHLYSVATELLNDSAVNEQQLAAAVQDLGEKGASDGLEADADGAVYAGDYEHNAIRKRLPNGVWQTVAHDPRMLWPDTLSIGPDGYLYFIVNQLHRQAGFNSGHDQRKKPYSLLRVKVATAPAPTH | failed
MTVAPFDTAKLDRLMEEAGIDVIAATSKHNTQYLMGGYKFIFFAAMDAIGHSRYLPMVIYEKGAPDHSAYVGNRMEGAEHQNNPFWTPAVHTATWGTQDAAGLAVEHLKKIGKASGRIGIEPAFLPSDARDLLASRLDGARFVDATHVLERLRAVKTADELAKLRRASELITDSMLATIAAARAGSTKLEIIEQLRREETNRGLHFEYCLLTLGASHNRAGSPQAWAEGEILSIDSGGNYHGYIGDLCRMGVLGEPDAELEDLLAEVERIQQAAFAKVRAGVLGSEMIVAAEAELKASPSAAFTDFFCHGMGLITHEAPFLMTNHPVAYEGIDADKPLEAGNVISVETTMLHPKRGFIKLEDTLAITDKGYEMFGDRGRGLEHHHHHH | failed
MDLKTSYKGISLNPIYAGSSAVATVSENGKILATPVLDEINIIDLTPGSRKILHKISNEDEQEITALKLTPDGQYLTYVSQAQLLKIFHLKTGKVVRSMKISSPSYILDADSTSTLLAVGGTDGSIIVVDIENGYITHSFKGHGGTISSLKFYGQLNSKIWLLASGDTNGMVKVWDLVKRKCLHTLQEHTSAVRGLDIIEVPDNDEPSLNLLSGGRDDIINLWDFNMKKKCKLLKTLPVNQQVESCGFLKDGDGKRIIYTAGGDAIFQLIDSESGSVLKRTNKPIEELFIIGVLPILSNSQMFLVLSDQTLQLINVEEDLKNDEDTIQVTSSIAGNHGIIADMRYVGPELNKLALATNSPSLRIIPVPDLSGPEASLPLDVEIYEGHEDLLNSLDATEDGLWIATASKDNTAIVWRYNENSCKFDIYAKYIGHSAAVTAVGLPNIVSKGYPEFLLTASNDLTIKKWIIPKPTASMDVQIIKVSEYTRHAHEKDINALSVSPNDSIFATASYDKTCKIWNLENGELEATLANHKRGLWDVSFCQYDKLLATSSGDKTVKIWSLDTFSVMKTLEGHTNAVQRCSFINKQKQLISCGADGLIKIWDCSSGECLKTLDGHNNRLWALSTMNDGDMIVSADADGVFQFWKDCTEQEIEEEQEKAKLQVEQEQSLQNYMSKGDWTNAFLLAMTLDHPMRLFNVLKRALGESRSRQDTEEGKIEVIFNEELDQAISILNDEQLILLMKRCRDWNTNAKTHTIAQRTIRCILMHHNIAKLSEIPGMVKIVDAIIPYTQRHFTRVDNLVEQSYILDYALVEMDKLF | failed
MKGLKALILVILVLGLVVGSVAAAPEKKVEQVRNVEKNYGLLTPGLFRKIQKLNPNEEISTVIVFENHREKEIAVRVLELMGAKVRYVYHIIPAIAADLKVRDLLVISGLTGGKAKLSGVRFIQEDYKVTVSAELEGLDESAAQVMATYVWNLGYDGSGITIGIIDTGIDASHPDLQGKVIGWVDFVNGRSYPYDDHGHGTHVASIAAGTGAASNGKYKGMAPGAKLAGIKVLGADGSGSISTIIKGVEWAVDNKDKYGIKVINLSLGSSQSSDGTDALSQAVNAAWDAGLVVVVAAGNSGPNKYTIGSPAAASKVITVGAVDKYDVITSFSSRGPTADGRLKPEVVAPGNWIIAARASGTSMGQPINDYYTAAPGTSMATPHVAGIAALLLQAHPSWTPDKVKTALIETADIVKPDEIADIAYGAGRVNAYKAINYDNYAKLVFTGYVANKGSQTHQFVISGASFVTATLYWDNANSDLDLYLYDPNGNQVDYSYTAYYGFEKVGYYNPTDGTWTIKVVSYSGSANYQVDVVSDGSLSQPGSSPSPQPEPTVDAKTFQGSVHYYYDRSDTFTMTVNSGATKITGDLVFDTSYHDLDLYLYDPNQKLVDRSESSNSYEHVEYLNPAPGTWYFLVYAYYTYGWAYYELTAKVYYG | failed
MGEMTLAFIEEQYKELDNLNNKENPAVLTRNTATGELLVRKIIPISFAPVLEELKKLSSNYLPKIEVMIPNGSELIVYEEYINGKNLADLMKVNAPFDADEVTGLMLMLSDALTELHTNAIIHRDIKPSNIMISSDGVLKLIDFDASRVFEVGKNQDTVNLGTIGYAAPEQYGYSQTDARSDIYSIGVLMLELLRGKNNLPDKETATSLEKIAMQAASFDPEQRFQTIQEFRTAIKNDSLGPTFVSELTNLSDFATIEDSADEINWATSTDEYEKDFIPWYKHIPGFRTGHTWKMVVAVLGYIFMAFGLFTPPTEGVKMNNIENFFANFFLIFPAFIIFTNLCGIWSKLPLLKSSSKGTRKVGIVVYIFVCIMIYGIYTEIFS | failed
MPLSTSDNIAAVIVTHKRVELLRASLEVVAAQTHPVKWIIVVDNGCEDAVRDLLHSVAGDRGIYLPSHTNLGGAGGFAYGFLTALALGADAIWCADDDGRPEGPQVLATLIDAAVTHQLDEVSPVVCNMDDPNRLAFPLRRGLEWRRYRSELIDPNNPSDTLLPGIASLFNGALISAAAMERIGVPDLRLFIRGDEVEYHRRLVRSGLNFGTCLTTAYLHPDGSDEFKPILGGRMHTQYPASDAKRYFTYRNRGYLMNQPGMRRLLPQEYARFAWFFLIQRRDPRGFLEWFKLHQLGRSEKFERPLEHHHHHH | failed
MSGSSHYPVANWNLDGIVSGLRGARQEWRGPRGRLREESESGVREFPSQESLRDIMRQLFGALFPMRLGPIDLREEVEDFYVGHTIGAALDALLHQVCLELQHLGRDDPQPYGQVLERAVDIVRRFGAELPAVRKALDLDVTAAYQGDPAARSVDEVLLCYPGVTAMIHHRLANVLYRLGAPMLARIVAEIAHSDTGIDIHPGATIGRSFFIDHGTGVVIGETAIIGERVRLYQMVTLGAKRFPPGENGELKKGLPRHPIIEDDVVIYAGATILGRITIGQGSTIGGNVWLTHSVPPNSTVTQAGAINDMPDCGLGGLEHHHHHH | failed
RIVSTLNERLAGLTLHEIRDTYEERLDDLPDETGLIALVLDEASILFSEPDEGRLQFDGTQNILSQPEFQEPDDMRHLIETIEDEDRIVQVIENLFEANPDAVGQAVVRIGSETDQEEMDAYSIVLSPYQLGDTVGSLGVIGPKRMDYGRAVALVENMAAVVNRPADDETTD | failed
MIFAFVFDRDYYSLGLVLLALFSAQSPYGGLSLEIYLKSCRIQQNYTRLNTMKLRLPHAPYVANKIALDLVSSGYIELGSNMEKISQIAKHFLEENIKKEAALEEKVRLLLEANLEEIEFLRVDERQFFWMAKKKLAEEEGFILAKDDRYSHLSHQILDELIKEEVIDFGVSDTIIKNVIFKAIDGYVKIYESIEDVVIEKIENYKRKIIAGTEEYDMVFEKLYEEELKKRGFL | failed
MTKMYINTIIEYIDSNIAYSPIVFFSLLILAGLNVPISEDAIVLMGGILSSRKNEYTILIFLGIFWGAYLGDIISFYIGKLMGNKLFKNKKDNNLLDKINYYYGQYGVLTLFIGRFIPFGVRNAIFMSAGMGNMKSNLFIVSDFFATLLSIVVYFTLSFKLGQSFEIIFSKIKIIIFAIFIAVIATTIIIYVIKKNKKVDKNLK | failed
MTRAKQIILWASLSAMPLIAQASERSDDEIKALVYQAILERPEIILQAVEQLQQAEEAAQAASAHAALTENRDSLFNDPNAPVLGNPEGDVTVVEFFDYNCPYCRRAMAEVQGLVDADPNVRLVYREWPILGEGSDFAARAALAARQQGKYEAFHWALMGMSGKANETGVLRIAREVGLDTEQLQRDMEAPEVTAHIAQSMALAQKLGFNGTPSFVVEDALVPGFVEQSQLQDAVDRARKAAAK | failed
MHFSKEHINALETRTRAHFINSLSGFKSANLIGTQDRQGNTNLSIVSSVIHLGANPPLMGMIIRPHSVPRHTFENIMQTGLYTINHVNQSIYEQAHQTSARYDKDESEFEATGLTPEYLSDFCAPFVKESRLKYSVKLVEHQHLAINGTEFVIGEIVDVYVDDNAVQTDGFIDLQAIDTVAISGLDCYYTGDKLARLPYAKK | not failed
MSVLSIVTVPDKRLSLCSEEVEKVDQSIRKLVDDMFETMHANQGLGLAAVQVGVHKRILVMNVPEEFEDSEDIENVEDKIEGYELYGGPYCIINPKIVDISQEKVKLKEGCLSVPGYFDYIVRPQRIAVQYLDYNGNECIIKAQGWLARCLQHEIDHLNGTVFLKYLSKFKRDFAIEKVKKKERTDLI | not failed
SLSTVNIKSTGVTSTELAEIGEHQSEMPGVKVGTSWTRSYPNGTDLSSVLGTVTTEKQGLPSDSIKTLLAEGYSRDDSVGQSQLEKQYENVLRGTKSQTEVKTQDGVIQKEIKKYGGQKGDNVQLTIN | failed
MTRKKLNLSYITNESMRKATFNKRKKGLVKKIHELSVLCGIEACAVIYSPFNSNPEVWPSNSEVKNVMENFEMLTKLEQEKKMVSHEGFIRQNISKTMESNNKKMIDNAERTMKEAMFQLLSGKGEKLNLTDRNREDLCKYIDQYLKELYHHKNKTINQSHIEPGESSGATNAMTPTSVVENPNFNHLSHNQYQYQQQFGYPILVQDGIYNPSQIQNQHEEWLDDHMMNHSKEISHPLMDDNNFYYQQP | not failed
MKKVLALVAFVVLFSFSFLSAGVTAQAALKDGTYSVDYTVLQGDSDSVSMANDYFDKPATVTVNGGKSTVSLQVNHSKWITGLWVEGNAVSVTSKNTASDTRKVSFPVSTLSSPVNAKIKVDIDDDGLNYHHEYQIQLRFDEGAVKSSGAAV | failed
MSTLISTPRTKMSPIRAEDWALFQRLHIEPSVISLCFDKPDERVLRDKFESRLASWTPECDHWLCLTIFDANTQQPIGITGFVLEEDKAEVGYLLLPEFHGQQFGTETLNALLHWAETTHDILRFSATVTEGNVASERVLTKCGFELSQVIPDAYQIGGKHYADKIYSRQK | failed
